Measurements published in publication PMC12881670, “Investigation into ligand selectivity and bias at the formyl peptide receptor family” (The Journal of Pharmacology and Experimental Therapeutics, 2025).
Where no end group is shown, it is not given here. The star is where a group is joined. Palmitoyl = CCCCCCCCCCCCCCCC(=O)*

Key:
[1] = biological target: T1, FLAG-tagged mouse Fpr2 (Mm_Fpr2) (mouse, UniProt O88536 1-351); test: cell-based or functional assay
T1 sequence (looked up): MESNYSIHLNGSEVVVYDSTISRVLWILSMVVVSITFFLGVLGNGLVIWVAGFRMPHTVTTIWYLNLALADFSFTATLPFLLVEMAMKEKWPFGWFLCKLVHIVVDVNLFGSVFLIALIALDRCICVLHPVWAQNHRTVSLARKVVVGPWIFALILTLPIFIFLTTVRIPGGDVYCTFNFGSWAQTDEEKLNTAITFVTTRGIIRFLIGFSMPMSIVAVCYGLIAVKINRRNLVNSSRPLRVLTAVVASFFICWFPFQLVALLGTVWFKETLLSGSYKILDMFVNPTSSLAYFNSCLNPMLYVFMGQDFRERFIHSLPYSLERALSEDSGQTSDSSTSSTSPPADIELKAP

[2] = biological target: T2, FLAG-Hs_FPR2 C-terminally fused to Renilla Luciferase 8 (human, UniProt P25090 1-351); test: cell-based or functional assay
T2 sequence (looked up): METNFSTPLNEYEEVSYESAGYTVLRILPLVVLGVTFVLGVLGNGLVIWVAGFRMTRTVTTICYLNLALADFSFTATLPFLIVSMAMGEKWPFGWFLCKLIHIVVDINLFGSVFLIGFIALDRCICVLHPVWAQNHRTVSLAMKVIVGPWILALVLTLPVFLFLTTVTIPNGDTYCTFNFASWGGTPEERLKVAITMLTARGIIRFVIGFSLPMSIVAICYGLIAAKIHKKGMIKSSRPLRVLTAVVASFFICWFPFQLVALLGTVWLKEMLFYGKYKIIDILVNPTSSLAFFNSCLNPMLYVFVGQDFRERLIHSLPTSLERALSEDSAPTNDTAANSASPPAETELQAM

[3] = biological target: T3, FLAG-Mm_Fpr2 C-terminally fused to Renilla Luciferase 8 (mouse, UniProt O88536 1-351); test: cell-based or functional assay
T3 sequence (looked up): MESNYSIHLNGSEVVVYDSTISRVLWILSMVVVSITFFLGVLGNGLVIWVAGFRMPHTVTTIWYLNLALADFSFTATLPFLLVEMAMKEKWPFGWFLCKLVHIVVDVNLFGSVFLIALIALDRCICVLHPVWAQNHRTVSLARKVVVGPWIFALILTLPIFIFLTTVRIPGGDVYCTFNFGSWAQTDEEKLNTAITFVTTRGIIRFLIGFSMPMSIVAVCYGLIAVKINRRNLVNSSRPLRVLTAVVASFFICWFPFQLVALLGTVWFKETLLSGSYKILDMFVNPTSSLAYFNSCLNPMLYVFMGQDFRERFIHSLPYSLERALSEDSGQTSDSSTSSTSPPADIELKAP

[4] = biological target: T4, FLAG-tagged human FPR2 (Hs_FPR2) (human, UniProt P25090 1-351); test: cell-based or functional assay
T4 sequence (looked up): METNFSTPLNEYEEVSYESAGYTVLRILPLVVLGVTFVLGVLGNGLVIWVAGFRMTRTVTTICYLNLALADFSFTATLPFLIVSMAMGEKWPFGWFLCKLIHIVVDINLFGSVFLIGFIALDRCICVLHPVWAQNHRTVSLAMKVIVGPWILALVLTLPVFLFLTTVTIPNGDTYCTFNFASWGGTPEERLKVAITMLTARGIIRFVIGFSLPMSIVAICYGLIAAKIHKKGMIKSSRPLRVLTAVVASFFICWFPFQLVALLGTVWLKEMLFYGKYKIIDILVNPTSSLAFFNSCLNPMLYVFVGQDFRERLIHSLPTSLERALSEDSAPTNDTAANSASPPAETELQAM

[5] = biological target: T1, FLAG-tagged mouse Fpr2 (Mm_Fpr2); test: cell-based or functional assay; remark: listed apart in the source
[6] = biological target: T4, FLAG-tagged human FPR2 (Hs_FPR2); test: cell-based or functional assay; remark: listed apart in the source
[7] = biological target: T4, FLAG-tagged human FPR2 (Hs_FPR2); test: flow cytometry on cells; competition binding: HEK293 cells stably expressing the receptor, lifted in PBS, on ice 90 min with 10 nM K(5/6-FAM)-WKYMVm and increasing unlabeled ligand; mean fluorescence of 5000 cells as % of that without competitor; One site-Fit logIC50
[8] = biological target: T1, FLAG-tagged mouse Fpr2 (Mm_Fpr2); test: as above
[9] = biological target: T2, FLAG-Hs_FPR2 C-terminally fused to …; test: cell-based or functional assay; remark: listed apart in the source
[10] = biological target: T3, FLAG-Mm_Fpr2 C-terminally fused to …; test: cell-based or functional assay; remark: listed apart in the source

B1: F2Pal10 (Pal-Pal-KIHKKGMIKS) (peptide)
peptide: {Palmitoyl-Palmitoyl}-KIHKKGMIKS
notes: Pal is printed twice; the text speaks of N-terminal palmitoylation as the last step of the synthesis; also called pepducin; source: synthetic peptide (Fmoc solid phase, purified by preparative RP-HPLC)
[1]
  receptor internalization (flow cytometry): Emax (% of 1 μM WKYMVm): 12.3%
  receptor internalization (flow cytometry): Log EC50 (M): -10.5 log M
[2]
  BRET of receptor-RLuc8 with Arrestin 3-YFP: Emax (% of 1 μM WKYMVm): 25.5%
  BRET of receptor-RLuc8 with Arrestin 3-YFP: Log EC50 (M): -6.55 log M
[3]
  BRET of receptor-RLuc8 with Arrestin 3-YFP: Emax (% of 1 μM WKYMVm): 33.4%
  BRET of receptor-RLuc8 with Arrestin 3-YFP: Log EC50 (M): -6.58 log M
[4]
  ERK1/2 phosphorylation (Western blot): Emax (% of 1 μM WKYMVm): 80.8%
  ERK1/2 phosphorylation (Western blot): Log EC50 (M): -7.47 log M
[5]
  ERK1/2 phosphorylation (Western blot): Emax (% of 1 μM WKYMVm): 141%
  ERK1/2 phosphorylation (Western blot): Log EC50 (M): -7.27 log M
[6]
  TruPath BRET: dissociation of Gαi2 from β3γ9, EC50 (receptor not given): 130 nM
[7]
  Log IC50: -5.27 log M
  Max Comp (%): 100%
[8]
  Log IC50: -5.38 log M
  Max Comp (%): 100%
[9]
  BRET of receptor-RLuc8 with Venus-mGsi: Emax (% of 1 μM WKYMVm): 19.4%
  BRET of receptor-RLuc8 with Venus-mGsi: Log EC50 (M): -6.78 log M
[10]
  BRET of receptor-RLuc8 with Venus-mGsi: Emax (% of 1 μM WKYMVm): 24.2%
  BRET of receptor-RLuc8 with Venus-mGsi: Log EC50 (M): -6.78 log M
